Tests used:
[1] = biological target: HA of the Shandong 1993 strain (A/Shandong/9/1993 H3N2), soluble, biotinylated (Influenza A virus A/Shandong/9/1993 …, UniProt H9XM74, strain, biotin (site not stated)); test: BLI; details: both partners purified
[2] = biological target: HA of the Beijing 1989 strain (A/Beijing/353/1989 H3N2), soluble, biotinylated (Influenza A virus A/Beijing/353/1989 …, UniProt O11283, strain, biotin (site not stated)); test: BLI; details: both partners purified

B1: H3v-47 Fab (Fab, V domains shown)
VH: QVQLVQSGAEVKKPGSSVRVSCKASGDTFSSYSITWVRQAPGHGLQWMGGIFPIFGSTNYAQKFDDRLTITTDDSSRTVYMELTSLRLEDTAVYYCARGASKVEPAAPAYSDAFDMWGQGTLVTVSS
VL: DIVMTQSPGTLSLSPGERATLSCRTSQGVSSSYLAWYQQKPGQAPRLLISGSSSRATGIPDRFSGSGSGRDFTLTISRLEPEDSAVYYCQQYATSPTFGQGTRVEIK
binding result [1]: binds
binding result [2]: binds

B2: H3v-47 IgG (antibody, V domains shown)
VH: B1 VH
VL: B1 VL
notes: also called mAb H3v-47; source: human hybridoma cell line, serum-free medium, purified (protein G); copies: 2 + 2
binding result [1]: binds
binding result [2]: binds

Source: PMC6039445 (Nature Communications, 2018)
